A word on the Kd: it is the constant that tells how readily two partners part at equilibrium.

The chains are these.
T1: CD206 (human, UniProt P22897)
T1 chain: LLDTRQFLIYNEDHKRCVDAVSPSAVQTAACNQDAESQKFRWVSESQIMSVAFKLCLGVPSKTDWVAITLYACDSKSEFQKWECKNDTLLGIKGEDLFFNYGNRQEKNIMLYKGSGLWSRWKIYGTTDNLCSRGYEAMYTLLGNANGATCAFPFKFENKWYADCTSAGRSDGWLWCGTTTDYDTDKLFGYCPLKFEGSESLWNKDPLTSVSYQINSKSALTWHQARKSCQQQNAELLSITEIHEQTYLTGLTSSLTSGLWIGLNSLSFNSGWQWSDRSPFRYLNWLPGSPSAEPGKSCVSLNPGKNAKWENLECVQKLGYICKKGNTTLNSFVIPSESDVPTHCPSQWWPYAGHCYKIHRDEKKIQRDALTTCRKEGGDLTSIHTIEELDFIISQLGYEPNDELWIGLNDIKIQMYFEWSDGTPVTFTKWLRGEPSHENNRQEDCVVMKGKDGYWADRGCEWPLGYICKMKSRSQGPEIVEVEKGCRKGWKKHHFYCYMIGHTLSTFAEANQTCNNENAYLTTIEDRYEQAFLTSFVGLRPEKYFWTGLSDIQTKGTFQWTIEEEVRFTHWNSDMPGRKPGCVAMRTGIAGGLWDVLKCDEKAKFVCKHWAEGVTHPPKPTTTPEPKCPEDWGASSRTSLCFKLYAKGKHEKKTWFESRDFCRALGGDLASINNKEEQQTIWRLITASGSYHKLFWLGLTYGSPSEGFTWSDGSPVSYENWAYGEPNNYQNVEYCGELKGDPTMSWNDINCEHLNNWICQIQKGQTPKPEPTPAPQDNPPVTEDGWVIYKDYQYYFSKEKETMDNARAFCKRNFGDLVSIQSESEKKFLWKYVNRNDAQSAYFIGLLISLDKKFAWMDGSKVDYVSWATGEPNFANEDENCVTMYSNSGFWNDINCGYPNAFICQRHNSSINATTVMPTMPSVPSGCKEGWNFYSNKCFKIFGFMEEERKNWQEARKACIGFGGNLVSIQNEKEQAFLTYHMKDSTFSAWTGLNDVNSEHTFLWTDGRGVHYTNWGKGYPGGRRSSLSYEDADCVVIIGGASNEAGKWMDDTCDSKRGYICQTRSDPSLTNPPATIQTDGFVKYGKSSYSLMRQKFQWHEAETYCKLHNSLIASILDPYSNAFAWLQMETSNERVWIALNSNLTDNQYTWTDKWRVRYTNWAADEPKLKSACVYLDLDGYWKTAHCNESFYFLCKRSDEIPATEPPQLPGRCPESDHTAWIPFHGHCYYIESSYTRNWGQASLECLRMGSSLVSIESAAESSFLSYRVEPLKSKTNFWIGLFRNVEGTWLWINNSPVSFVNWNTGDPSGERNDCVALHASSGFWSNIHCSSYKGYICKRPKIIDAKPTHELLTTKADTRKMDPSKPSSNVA

B1: BEAT 1a1 CD40 arm (antibody, V domains shown)
VH: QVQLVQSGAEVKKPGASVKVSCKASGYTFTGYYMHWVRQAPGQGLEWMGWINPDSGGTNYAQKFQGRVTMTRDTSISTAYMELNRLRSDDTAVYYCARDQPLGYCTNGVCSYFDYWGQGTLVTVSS
VL: DIQMTQSPSSVSASVGDRVTITCRASQGIYSWLAWYQQKPGKAPNLLIYTASTLQSGVPSRFSGSGSGTDFTLTISSLQPEDFATYYCQQANIFPLTFGGGTKVEIK
B2: BEAT 1a5 CD40 arm (antibody, V domains shown)
VH: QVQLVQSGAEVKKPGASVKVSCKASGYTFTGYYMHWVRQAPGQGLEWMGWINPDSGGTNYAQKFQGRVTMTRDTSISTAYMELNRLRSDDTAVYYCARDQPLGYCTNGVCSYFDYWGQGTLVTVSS
VL: DIQMTQSPSSVSASVGDRVTITCRASQGIYSWLAWYQQKPGKAPNLLIYTASTLQSGVPSRFSGSGSGTDFTLTISSLQPEDFATYYCQQANIFPLTFGGGTKVEIK
B3: BEAT 1a4 CD40 arm (antibody, V domains shown)
VH: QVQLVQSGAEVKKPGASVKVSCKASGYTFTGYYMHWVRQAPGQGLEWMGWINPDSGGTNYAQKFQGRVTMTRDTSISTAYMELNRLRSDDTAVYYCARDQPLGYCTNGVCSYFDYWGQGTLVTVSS
VL: DIQMTQSPSSVSASVGDRVTITCRASQGIYSWLAWYQQKPGKAPNLLIYTASTLQSGVPSRFSGSGSGTDFTLTISSLQPEDFATYYCQQANIFPLTFGGGTKVEIK
B4: BEAT 1a3 CD40 arm (antibody, V domains shown)
VH: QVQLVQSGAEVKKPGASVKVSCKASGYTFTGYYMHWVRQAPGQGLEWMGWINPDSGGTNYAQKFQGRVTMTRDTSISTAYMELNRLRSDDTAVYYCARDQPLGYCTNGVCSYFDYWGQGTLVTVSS
VL: DIQMTQSPSSVSASVGDRVTITCRASQGIYSWLAWYQQKPGKAPNLLIYTASTLQSGVPSRFSGSGSGTDFTLTISSLQPEDFATYYCQQANIFPLTFGGGTKVEIK
B5: anti-CD40 IgG2 (antibody, V domains shown)
VH: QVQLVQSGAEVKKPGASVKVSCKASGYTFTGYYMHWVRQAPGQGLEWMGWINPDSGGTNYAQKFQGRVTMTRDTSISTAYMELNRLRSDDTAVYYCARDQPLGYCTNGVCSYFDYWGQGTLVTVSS
VL: DIQMTQSPSSVSASVGDRVTITCRASQGIYSWLAWYQQKPGKAPNLLIYTASTLQSGVPSRFSGSGSGTDFTLTISSLQPEDFATYYCQQANIFPLTFGGGTKVEIK
B6: BEAT 1b4 CD40 arm (antibody, V domains shown)
VH: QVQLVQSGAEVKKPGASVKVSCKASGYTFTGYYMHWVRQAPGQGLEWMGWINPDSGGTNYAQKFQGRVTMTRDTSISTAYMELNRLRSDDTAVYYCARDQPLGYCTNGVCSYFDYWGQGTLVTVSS
VL: DIQMTQSPSSVSASVGDRVTITCRASQGIYSWLAWYQQKPGKAPNLLIYTASTLQSGVPSRFSGSGSGTDFTLTISSLQPEDFATYYCQQANIFPLTFGGGTKVEIK
B7: BEAT 1a2 CD40 arm (antibody, V domains shown)
VH: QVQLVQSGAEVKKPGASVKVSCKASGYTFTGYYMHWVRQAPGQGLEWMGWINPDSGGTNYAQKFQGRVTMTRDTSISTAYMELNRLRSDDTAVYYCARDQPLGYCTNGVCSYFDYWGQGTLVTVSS
VL: DIQMTQSPSSVSASVGDRVTITCRASQGIYSWLAWYQQKPGKAPNLLIYTASTLQSGVPSRFSGSGSGTDFTLTISSLQPEDFATYYCQQANIFPLTFGGGTKVEIK
B8: BEAT 1b2 CD40 arm (antibody, V domains shown)
VH: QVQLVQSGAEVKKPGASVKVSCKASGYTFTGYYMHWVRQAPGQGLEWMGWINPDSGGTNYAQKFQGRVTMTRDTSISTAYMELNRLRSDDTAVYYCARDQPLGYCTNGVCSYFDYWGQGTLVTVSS
VL: DIQMTQSPSSVSASVGDRVTITCRASQGIYSWLAWYQQKPGKAPNLLIYTASTLQSGVPSRFSGSGSGTDFTLTISSLQPEDFATYYCQQANIFPLTFGGGTKVEIK
B9: BEAT 2b1 CD206 arm (antibody, V domains shown)
VH: EVQLVQSGAEVKKPGESLRISCKGSGDSFTTYWIGWVRQMPGKGLEWMGIIYPGDSDTIYSPSFQGQVTISADKSISTAYLQWSSLKASDTAMYYCTRGDRGVDYWGQGTLVTVSS
VL: DIQMTQSPSSLSASVGDRVTITCRASQGISRWLAWYQQKPEKAPKSLIYAASSLQSGVPSRFSGSGSGTDFTLTISGLQPEDFATYYCQQYNSYPRTFGQGTKVEIK
B10: BEAT 2b4 CD206 arm (antibody, V domains shown)
VH: EVQLVQSGAEVKKPGESLRISCKGSGDSFTTYWIGWVRQMPGKGLEWMGIIYPGDSDTIYSPSFQGQVTISADKSISTAYLQWSSLKASDTAMYYCTRGDRGVDYWGQGTLVTVSS
VL: DIQMTQSPSSLSASVGDRVTITCRASQGISRWLAWYQQKPEKAPKSLIYAASSLQSGVPSRFSGSGSGTDFTLTISGLQPEDFATYYCQQYNSYPRTFGQGTKVEIK
B11: BEAT 2a3 CD206 arm (antibody, V domains shown)
VH: EVQLVQSGAEVKKPGESLRISCKGSGDSFTTYWIGWVRQMPGKGLEWMGIIYPGDSDTIYSPSFQGQVTISADKSISTAYLQWSSLKASDTAMYYCTRGDRGVDYWGQGTLVTVSS
VL: DIQMTQSPSSLSASVGDRVTITCRASQGISRWLAWYQQKPEKAPKSLIYAASSLQSGVPSRFSGSGSGTDFTLTISGLQPEDFATYYCQQYNSYPRTFGQGTKVEIK
B12: BEAT 2a5 CD206 arm (antibody, V domains shown)
VH: EVQLVQSGAEVKKPGESLRISCKGSGDSFTTYWIGWVRQMPGKGLEWMGIIYPGDSDTIYSPSFQGQVTISADKSISTAYLQWSSLKASDTAMYYCTRGDRGVDYWGQGTLVTVSS
VL: DIQMTQSPSSLSASVGDRVTITCRASQGISRWLAWYQQKPEKAPKSLIYAASSLQSGVPSRFSGSGSGTDFTLTISGLQPEDFATYYCQQYNSYPRTFGQGTKVEIK
B13: BEAT 2b3 CD206 arm (antibody, V domains shown)
VH: EVQLVQSGAEVKKPGESLRISCKGSGDSFTTYWIGWVRQMPGKGLEWMGIIYPGDSDTIYSPSFQGQVTISADKSISTAYLQWSSLKASDTAMYYCTRGDRGVDYWGQGTLVTVSS
VL: DIQMTQSPSSLSASVGDRVTITCRASQGISRWLAWYQQKPEKAPKSLIYAASSLQSGVPSRFSGSGSGTDFTLTISGLQPEDFATYYCQQYNSYPRTFGQGTKVEIK
B14: anti-CD206 IgG1 (antibody, V domains shown)
VH: EVQLVQSGAEVKKPGESLRISCKGSGDSFTTYWIGWVRQMPGKGLEWMGIIYPGDSDTIYSPSFQGQVTISADKSISTAYLQWSSLKASDTAMYYCTRGDRGVDYWGQGTLVTVSS
VL: DIQMTQSPSSLSASVGDRVTITCRASQGISRWLAWYQQKPEKAPKSLIYAASSLQSGVPSRFSGSGSGTDFTLTISGLQPEDFATYYCQQYNSYPRTFGQGTKVEIK
B15: BEAT 2a2 CD206 arm (antibody, V domains shown)
VH: EVQLVQSGAEVKKPGESLRISCKGSGDSFTTYWIGWVRQMPGKGLEWMGIIYPGDSDTIYSPSFQGQVTISADKSISTAYLQWSSLKASDTAMYYCTRGDRGVDYWGQGTLVTVSS
VL: DIQMTQSPSSLSASVGDRVTITCRASQGISRWLAWYQQKPEKAPKSLIYAASSLQSGVPSRFSGSGSGTDFTLTISGLQPEDFATYYCQQYNSYPRTFGQGTKVEIK
B16: BEAT 2a4 CD206 arm (antibody, V domains shown)
VH: EVQLVQSGAEVKKPGESLRISCKGSGDSFTTYWIGWVRQMPGKGLEWMGIIYPGDSDTIYSPSFQGQVTISADKSISTAYLQWSSLKASDTAMYYCTRGDRGVDYWGQGTLVTVSS
VL: DIQMTQSPSSLSASVGDRVTITCRASQGISRWLAWYQQKPEKAPKSLIYAASSLQSGVPSRFSGSGSGTDFTLTISGLQPEDFATYYCQQYNSYPRTFGQGTKVEIK
B17: BEAT 2b2 CD206 arm (antibody, V domains shown)
VH: EVQLVQSGAEVKKPGESLRISCKGSGDSFTTYWIGWVRQMPGKGLEWMGIIYPGDSDTIYSPSFQGQVTISADKSISTAYLQWSSLKASDTAMYYCTRGDRGVDYWGQGTLVTVSS
VL: DIQMTQSPSSLSASVGDRVTITCRASQGISRWLAWYQQKPEKAPKSLIYAASSLQSGVPSRFSGSGSGTDFTLTISGLQPEDFATYYCQQYNSYPRTFGQGTKVEIK
B18: BEAT 2a6 CD206 arm (antibody, V domains shown)
VH: EVQLVQSGAEVKKPGESLRISCKGSGDSFTTYWIGWVRQMPGKGLEWMGIIYPGDSDTIYSPSFQGQVTISADKSISTAYLQWSSLKASDTAMYYCTRGDRGVDYWGQGTLVTVSS
VL: DIQMTQSPSSLSASVGDRVTITCRASQGISRWLAWYQQKPEKAPKSLIYAASSLQSGVPSRFSGSGSGTDFTLTISGLQPEDFATYYCQQYNSYPRTFGQGTKVEIK
B19: BEAT 2a7 CD206 arm (antibody, V domains shown)
VH: EVQLVQSGAEVKKPGESLRISCKGSGDSFTTYWIGWVRQMPGKGLEWMGIIYPGDSDTIYSPSFQGQVTISADKSISTAYLQWSSLKASDTAMYYCTRGDRGVDYWGQGTLVTVSS
VL: DIQMTQSPSSLSASVGDRVTITCRASQGISRWLAWYQQKPEKAPKSLIYAASSLQSGVPSRFSGSGSGTDFTLTISGLQPEDFATYYCQQYNSYPRTFGQGTKVEIK
B20: BEAT 2a8 CD206 arm (antibody, V domains shown)
VH: EVQLVQSGAEVKKPGESLRISCKGSGDSFTTYWIGWVRQMPGKGLEWMGIIYPGDSDTIYSPSFQGQVTISADKSISTAYLQWSSLKASDTAMYYCTRGDRGVDYWGQGTLVTVSS
VL: DIQMTQSPSSLSASVGDRVTITCRASQGISRWLAWYQQKPEKAPKSLIYAASSLQSGVPSRFSGSGSGTDFTLTISGLQPEDFATYYCQQYNSYPRTFGQGTKVEIK

Values joined by “and” are separate entries in the source; they are usually repeats but may differ in a detail not shown here. Identical values can stand only once.

For the first assay, the target named is CD40 (human, UniProt P25942). The assay is described as follows: SPR.
Sequence of CD40 (P25942 21-193): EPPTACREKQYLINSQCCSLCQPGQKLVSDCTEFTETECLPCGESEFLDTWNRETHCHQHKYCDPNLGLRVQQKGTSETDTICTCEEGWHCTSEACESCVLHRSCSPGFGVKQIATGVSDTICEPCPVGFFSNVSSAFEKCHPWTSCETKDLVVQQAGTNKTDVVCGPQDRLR
As to B1, the Kd is 0.574 nM and 0.572 nM and 0.585 nM.

Take B2: the Kd is 0.988 nM and 0.986 nM.

For B3, the Kd is 0.444 nM and 0.391 nM and 0.467 nM.

On to B4, for which the Kd was 0.957 nM and 0.975 nM.

For B5, the Kd was 0.535 nM and 0.7 nM.

In the case of B6, the Kd was 0.487 nM and 0.496 nM.

Turning to B7, the Kd is 0.471 nM and 0.534 nM.

For the molecule B8, the Kd was 0.444 nM and 0.295 nM.

In the next assay the target is T1, CD206. Kind of assay: SPR. A general note: In SPR one partner is held on a chip, and binding of the other changes the refractive index at the surface.
As for B9, the Kd was 27.8 nM and 47 nM.

B10: the Kd is 14 nM and 12.4 nM.

On to B11, for which the Kd is 22.2 nM and 23.6 nM.

On to B12, for which the Kd was 30.1 nM and 32.7 nM.

B13: the Kd was 20.1 nM and 21.3 nM.

For the molecule B14, the Kd is 11.2 nM and 10.3 nM and 10.5 nM and 11.1 nM.

As for B15, the Kd was 11.8 nM and 9.48 nM.

For the molecule B16, the Kd is 10.3 nM and 11.9 nM.

Regarding B17, the Kd is 12.7 nM and 13.4 nM.

With B18, the equilibrium dissociation constant (Kd) was 10.3 nM and 10.4 nM.

On to B19, for which the Kd was 15.9 nM and 14.3 nM.

Take B20: the Kd is 15.8 nM and 15.6 nM.

Source of the values: patent publication US20260285997 (published 2026).
